Test results: US20150266974A1 (RINAT NEUROSCIENCE, published 2015)

Experiments:
mouse PCSK9 [1] = molecular target: T1, mouse PCSK9 (mouse, UniProt Q80W65 35-694, limits assumed); experiment: SPR Biacore 3000, captured IgG, mPCSK9 injected, pH 5.5
T1 construct: also called mPCSK9; msPCK9
Text: (§1) These antibodies were expressed and purified for determination of their KD at 7.4 and their KD ratio of pH5.5/pH 7.4, as measured on a surface plasmon resonance Biacore 3000 biosensor equipped with a research-grade sensor chip using HBS-EP running buffer (Biacore AB, Uppsala, Sweden—now GE Healthcare). Rabbit polyclonal anti-Ms IgGs were amine-coupled at saturating levels onto the chip using a standard N-hydroxysuccinimide/ethyldimethylaminopropyl carbodiimide (NHS/EDC) chemistry. The buffer was switched to HBS-EP+1 mg/mL BSA+1 mg/mL CM-dextran. Full-length PCSK9 IgGs were diluted to about 15 μg/mL and captured for 1 min at 5 μL/min to give levels of about 500 RU per flow cell, leaving one blank to serve as a reference channel. […] Dissociation was monitored for 5 min. The chip was regenerated after the last injection of each titration with two 30 sec pulses of 100 mM phosphoric acid. Buffer cycles provided blanks for double-referencing the data, which were then fit globally to a simple binding model using Biaevaluation software v.4.1. Affinities were deduced from the quotient of the kinetic rate constants (KD=koff/kₒₙ).

mouse PCSK9 [2] = molecular target: T1, mouse PCSK9; experiment: SPR Biacore 3000, captured IgG, mPCSK9 injected, pH 7.4
Text: as §1

human PCSK9 [3] = molecular target: T2, human PCSK9 (human, UniProt Q8NBP7 31-692, limits assumed); experiment: SPR Biacore 3000, captured IgG, hPCSK9 injected, pH 5.5
T2 construct: also called hPCSK9; huPCSK9
T2 sequence (Q8NBP7 31-692 limits assumed): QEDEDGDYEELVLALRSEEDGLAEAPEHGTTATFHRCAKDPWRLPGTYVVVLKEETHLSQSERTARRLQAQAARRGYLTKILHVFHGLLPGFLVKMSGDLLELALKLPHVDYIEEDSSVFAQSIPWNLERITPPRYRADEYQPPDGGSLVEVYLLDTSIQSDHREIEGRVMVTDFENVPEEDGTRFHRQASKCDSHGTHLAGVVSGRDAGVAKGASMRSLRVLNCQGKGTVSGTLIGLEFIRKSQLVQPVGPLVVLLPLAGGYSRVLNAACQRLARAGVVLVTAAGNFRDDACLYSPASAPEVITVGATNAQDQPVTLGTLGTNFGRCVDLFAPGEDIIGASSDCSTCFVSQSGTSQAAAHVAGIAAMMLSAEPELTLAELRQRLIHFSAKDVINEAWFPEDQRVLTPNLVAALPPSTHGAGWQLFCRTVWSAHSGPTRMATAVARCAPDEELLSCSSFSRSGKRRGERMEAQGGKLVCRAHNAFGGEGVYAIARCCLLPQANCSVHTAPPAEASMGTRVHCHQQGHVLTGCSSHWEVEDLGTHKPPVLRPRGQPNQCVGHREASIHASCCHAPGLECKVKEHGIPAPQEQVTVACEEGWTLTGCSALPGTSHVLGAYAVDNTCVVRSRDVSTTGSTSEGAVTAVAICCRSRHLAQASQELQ
Text: as §1

mouse PCSK9 [4] = molecular target: T1, mouse PCSK9; experiment: SPR Biacore 3000, KD at pH 5.5 over KD at pH 7.4
Text: as §1

human PCSK9 [5] = molecular target: T2, human PCSK9; experiment: SPR Biacore 3000, KD at pH 5.5 over KD at pH 7.4
Text: as §1

human PCSK9 [6] = molecular target: T2, human PCSK9; experiment: SPR Biacore 3000, captured IgG, hPCSK9 injected, pH 7.4
Text: as §1

T1 sequence (Q80W65 35-694 limits assumed): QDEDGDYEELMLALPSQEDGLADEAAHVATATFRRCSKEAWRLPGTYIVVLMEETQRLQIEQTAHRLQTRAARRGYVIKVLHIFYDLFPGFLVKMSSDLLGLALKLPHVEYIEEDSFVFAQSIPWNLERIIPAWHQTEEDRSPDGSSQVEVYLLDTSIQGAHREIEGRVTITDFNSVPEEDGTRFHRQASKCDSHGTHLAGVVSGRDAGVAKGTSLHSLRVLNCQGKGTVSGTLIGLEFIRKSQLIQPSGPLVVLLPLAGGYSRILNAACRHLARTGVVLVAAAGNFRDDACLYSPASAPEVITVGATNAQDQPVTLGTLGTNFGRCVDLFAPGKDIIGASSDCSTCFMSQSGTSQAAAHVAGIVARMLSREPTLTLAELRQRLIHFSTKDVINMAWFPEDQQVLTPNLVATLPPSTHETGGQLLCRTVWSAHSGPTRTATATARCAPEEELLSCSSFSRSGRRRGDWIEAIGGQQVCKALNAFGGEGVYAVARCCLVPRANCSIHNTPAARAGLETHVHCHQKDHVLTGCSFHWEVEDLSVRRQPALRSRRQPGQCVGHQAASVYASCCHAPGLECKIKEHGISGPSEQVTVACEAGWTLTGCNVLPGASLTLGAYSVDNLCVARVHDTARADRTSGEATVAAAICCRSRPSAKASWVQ

Binder | Kd (mouse PCSK9 [1]) | koff (mouse PCSK9 [1]) | kon (mouse PCSK9 [1]) | Kd (mouse PCSK9 [2]) | koff (mouse PCSK9 [2]) | kon (mouse PCSK9 [2]) | Kd (human PCSK9 [3]) | koff (human PCSK9 [3]) | kon (human PCSK9 [3]) | KD ratio pH 5.5/7.4 (mouse PCSK9 [4]) | KD ratio pH 5.5/7.4 (human PCSK9 [5]) | Kd (human PCSK9 [6]) | koff (human PCSK9 [6]) | kon (human PCSK9 [6])
5L1721H23_6L3H3 (antibody, V domains shown, Tested as full-length IgG; also called heavy UC-H5H23-6H3, light UC-H5L1721-6L3) VH: QVQLVQSGAEVKKPGASVKVSCKASGYTFTSYYMHWVRQAPGQGLEWMGEIHPSGGRTNYNEKFKSRVTMTRDTSTSTVYMELSSLRSEDTAVYYCARERPLYASDLWGQGTTVTVSS VL: DIQMTQSPSSLSASVGDRVTITCKASQDVHTAVAWYQQKPGKAPKLLIYHASYRYTGVPSRFSGSGSGTDFTFTISSLQPEDIATYYCQQRYSLWRTFGQGTKLEIK | 117 nM | 0.0187 s⁻¹ | 160000 M⁻¹ s⁻¹ | 8.1 nM | 0.000516 s⁻¹ | 63700 M⁻¹ s⁻¹ | – | – | – | – | – | – | – | –
6L21H2335 (antibody, V domains shown) VH: QVQLVQSGAEVKKPGASVKVSCKASGYTFTSYYMHWVRQAPGQGLEWMGEIHPFGGRTNYNEKFKSRVTMTRDTSTSTVYMELSSLRSEDTAVYYCARERPLHASDLWGQGTTVTVSS VL: DIQMTQSPSSLSASVGDRVTITCRASQGISSALAWYQQKPGKAPKLLIYHASYRYTGVPSRFSGSGSGTDFTFTISSLQPEDIATYYCQQRYSLWRTFGQGTKLEIK | 451 nM | 0.237 s⁻¹ | 526000 M⁻¹ s⁻¹ | 191 nM | 0.0172 s⁻¹ | 89900 M⁻¹ s⁻¹ | 363 nM | 0.238 s⁻¹ | 655000 M⁻¹ s⁻¹ | 2.4 | 2.9 | 126 nM | 0.00733 s⁻¹ | 58100 M⁻¹ s⁻¹
5L1724H23 (antibody, V domains shown, Triple histidine mutant of h5A10; Only CDRs printed; Full-length IgG) VH: QVQLVQSGAEVKKPGASVKVSCKASGYTFTSYYMHWVRQAPGQGLEWMGEIHPSGGRTNYNEKFKSRVTMTRDTSTSTVYMELSSLRSEDTAVYYCARERPLYAMDYWGQGTTVTVSS VL: DIQMTQSPSSLSASVGDRVTITCKASQDVHTAVAWYQQKPGKAPKLLIYSASHRYTGVPSRFSGSGSGTDFTFTISSLQPEDIATYYCQQRYSTPRTFGQGTKLEIK | 74 nM | 0.0202 s⁻¹ | 273000 M⁻¹ s⁻¹ | – | – | – | 39 nM | 0.00793 s⁻¹ | 203000 M⁻¹ s⁻¹ | – | – | – | – | –
5L1721H23_6L3 (antibody, V domains shown, Tested as full-length IgG; also called heavy UC-H5H23, light UC-H5L1721-6L3) VH: QVQLVQSGAEVKKPGASVKVSCKASGYTFTSYYMHWVRQAPGQGLEWMGEIHPSGGRTNYNEKFKSRVTMTRDTSTSTVYMELSSLRSEDTAVYYCARERPLYAMDYWGQGTTVTVSS VL: DIQMTQSPSSLSASVGDRVTITCKASQDVHTAVAWYQQKPGKAPKLLIYHASYRYTGVPSRFSGSGSGTDFTFTISSLQPEDIATYYCQQRYSLWRTFGQGTKLEIK | 408 nM | 0.0428 s⁻¹ | 105000 M⁻¹ s⁻¹ | 14 nM | 0.000676 s⁻¹ | 47500 M⁻¹ s⁻¹ | 257 nM | 0.0166 s⁻¹ | 64500 M⁻¹ s⁻¹ | 29.1 | 37.2 | 6.9 nM | 0.000214 s⁻¹ | 30900 M⁻¹ s⁻¹
6L1721H23 (antibody, V domains shown, L1L3-based mutant; Full-length IgG) VH: QVQLVQSGAEVKKPGASVKVSCKASGYTFTSYYMHWVRQAPGQGLEWMGEIHPFGGRTNYNEKFKSRVTMTRDTSTSTVYMELSSLRSEDTAVYYCARERPLYASDLWGQGTTVTVSS VL: DIQMTQSPSSLSASVGDRVTITCRASQGIHSALAWYQQKPGKAPKLLIYHASYRYTGVPSRFSGSGSGTDFTFTISSLQPEDIATYYCQQRYSLWRTFGQGTKLEIK | 36 nM | 0.00729 s⁻¹ | 204000 M⁻¹ s⁻¹ | 7.2 nM | 0.000469 s⁻¹ | 64800 M⁻¹ s⁻¹ | 24 nM | 0.00261 s⁻¹ | 110000 M⁻¹ s⁻¹ | 5 | 6 | 4 nM | 0.000201 s⁻¹ | 50200 M⁻¹ s⁻¹
5L1724H35 (antibody, V domains shown, Triple histidine mutant of h5A10; Only CDRs printed; Full-length IgG) VH: QVQLVQSGAEVKKPGASVKVSCKASGYTFTSYYMHWVRQAPGQGLEWMGEINPSGGRTNYNEKFKSRVTMTRDTSTSTVYMELSSLRSEDTAVYYCARERPLHAMDYWGQGTTVTVSS VL: DIQMTQSPSSLSASVGDRVTITCKASQDVHTAVAWYQQKPGKAPKLLIYSASHRYTGVPSRFSGSGSGTDFTFTISSLQPEDIATYYCQQRYSTPRTFGQGTKLEIK | – | – | – | 35 nM | 0.00153 s⁻¹ | 44300 M⁻¹ s⁻¹ | – | – | – | – | – | – | – | –
5L1724H23_6L3H3 (antibody, V domains shown, Only CDRs printed; Full-length IgG) VH: QVQLVQSGAEVKKPGASVKVSCKASGYTFTSYYMHWVRQAPGQGLEWMGEIHPSGGRTNYNEKFKSRVTMTRDTSTSTVYMELSSLRSEDTAVYYCARERPLYASDLWGQGTTVTVSS VL: DIQMTQSPSSLSASVGDRVTITCKASQDVHTAVAWYQQKPGKAPKLLIYSASHRYTGVPSRFSGSGSGTDFTFTISSLQPEDIATYYCQQRYSLWRTFGQGTKLEIK | 125 nM | 0.0263 s⁻¹ | 211000 M⁻¹ s⁻¹ | 13 nM | 0.000827 s⁻¹ | 63100 M⁻¹ s⁻¹ | 83 nM | 0.00789 s⁻¹ | 95500 M⁻¹ s⁻¹ | 9.6 | 5.5 | 15 nM | 0.000342 s⁻¹ | 22300 M⁻¹ s⁻¹
5L1724H23_6L3 (antibody, V domains shown, Only CDRs printed; Full-length IgG) VH: QVQLVQSGAEVKKPGASVKVSCKASGYTFTSYYMHWVRQAPGQGLEWMGEIHPSGGRTNYNEKFKSRVTMTRDTSTSTVYMELSSLRSEDTAVYYCARERPLYAMDYWGQGTTVTVSS VL: DIQMTQSPSSLSASVGDRVTITCKASQDVHTAVAWYQQKPGKAPKLLIYSASHRYTGVPSRFSGSGSGTDFTFTISSLQPEDIATYYCQQRYSLWRTFGQGTKLEIK | 756 nM | 0.121 s⁻¹ | 160000 M⁻¹ s⁻¹ | 41 nM | 0.00218 s⁻¹ | 53100 M⁻¹ s⁻¹ | 540 nM | 0.0407 s⁻¹ | 75400 M⁻¹ s⁻¹ | 18.4 | 24.5 | 22 nM | 0.00079 s⁻¹ | 35900 M⁻¹ s⁻¹
6L1721 (antibody, V domains shown, L1L3-based mutant; Tested as full-length IgG) VH: QVQLVQSGAEVKKPGASVKVSCKASGYTFTSYYMHWVRQAPGQGLEWMGEISPFGGRTNYNEKFKSRVTMTRDTSTSTVYMELSSLRSEDTAVYYCARERPLYASDLWGQGTTVTVSS VL: DIQMTQSPSSLSASVGDRVTITCRASQGIHSALAWYQQKPGKAPKLLIYHASYRYTGVPSRFSGSGSGTDFTFTISSLQPEDIATYYCQQRYSLWRTFGQGTKLEIK | 5.2 nM | 0.00177 s⁻¹ | 338000 M⁻¹ s⁻¹ | 2.6 nM | 0.000228 s⁻¹ | 88000 M⁻¹ s⁻¹ | 5.1 nM | 0.00084 s⁻¹ | 166000 M⁻¹ s⁻¹ | 2 | 2.3 | 2.2 nM | 7.08e-05 s⁻¹ | 32900 M⁻¹ s⁻¹
5L1721H23 (antibody, V domains shown, Triple histidine mutant of h5A10; Only CDRs printed; Full-length IgG) VH: QVQLVQSGAEVKKPGASVKVSCKASGYTFTSYYMHWVRQAPGQGLEWMGEIHPSGGRTNYNEKFKSRVTMTRDTSTSTVYMELSSLRSEDTAVYYCARERPLYAMDYWGQGTTVTVSS VL: DIQMTQSPSSLSASVGDRVTITCKASQDVHTAVAWYQQKPGKAPKLLIYHASYRYTGVPSRFSGSGSGTDFTFTISSLQPEDIATYYCQQRYSTPRTFGQGTKLEIK | 576 nM | 0.0588 s⁻¹ | 102000 M⁻¹ s⁻¹ | 23 nM | 0.00141 s⁻¹ | 61200 M⁻¹ s⁻¹ | 144 nM | 0.0179 s⁻¹ | 124000 M⁻¹ s⁻¹ | 25 | 11.1 | 13 nM | 0.000399 s⁻¹ | 31700 M⁻¹ s⁻¹
5L1721H23_6H3 (antibody, V domains shown, Only CDRs printed; Full-length IgG) VH: QVQLVQSGAEVKKPGASVKVSCKASGYTFTSYYMHWVRQAPGQGLEWMGEIHPSGGRTNYNEKFKSRVTMTRDTSTSTVYMELSSLRSEDTAVYYCARERPLYASDLWGQGTTVTVSS VL: DIQMTQSPSSLSASVGDRVTITCKASQDVHTAVAWYQQKPGKAPKLLIYHASYRYTGVPSRFSGSGSGTDFTFTISSLQPEDIATYYCQQRYSTPRTFGQGTKLEIK | 111 nM | 0.0341 s⁻¹ | 307000 M⁻¹ s⁻¹ | 8 nM | 0.000899 s⁻¹ | 113000 M⁻¹ s⁻¹ | 55 nM | 0.00772 s⁻¹ | 141000 M⁻¹ s⁻¹ | 13.9 | 7.5 | 7.3 nM | 0.000273 s⁻¹ | 37400 M⁻¹ s⁻¹
